Source: publication PMC4516985, “Transactivation of human osteoprotegerin promoter by GATA-3”

What was measured:
[1] = target: T1, GATA-3 (Homo sapiens, UniProt P23771 1-443); test: competition; excess unlabeled mutant did not compete with biotin-G3RE1; protein source conflict as above; LightShift EMSA Optimization & Control Kit (Thermo 20148) per manufacturer, 6% DNA retardation gel; buffer, salt, pH and temperature not stated; details: protein: commercial; label: none
[2] = target: T1, GATA-3; test: competition; excess unlabeled mutant did not compete with biotin-G3RE2; protein source conflict as above; LightShift EMSA Optimization & Control Kit (Thermo 20148) per manufacturer, 6% DNA retardation gel; buffer, salt, pH and temperature not stated; details: protein: commercial; label: none

T1 sequence (P23771 whole entry): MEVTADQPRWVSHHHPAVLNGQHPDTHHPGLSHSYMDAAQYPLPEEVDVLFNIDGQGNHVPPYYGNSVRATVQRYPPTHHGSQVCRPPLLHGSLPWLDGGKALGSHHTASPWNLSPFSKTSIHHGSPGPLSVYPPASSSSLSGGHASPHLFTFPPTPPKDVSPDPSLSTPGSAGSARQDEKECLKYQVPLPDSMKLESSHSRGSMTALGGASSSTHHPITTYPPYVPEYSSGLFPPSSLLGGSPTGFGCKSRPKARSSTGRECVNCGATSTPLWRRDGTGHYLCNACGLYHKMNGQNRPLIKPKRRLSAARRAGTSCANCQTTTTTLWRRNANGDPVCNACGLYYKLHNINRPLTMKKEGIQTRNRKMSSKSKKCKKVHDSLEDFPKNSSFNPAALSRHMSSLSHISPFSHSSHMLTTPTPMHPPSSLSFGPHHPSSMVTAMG

B1: mutant G3RE1 probe (dsDNA)
DNA 1: TAGGAAGCTCCCATGGCAATAGCCCT
DNA 2: AGGGCTATTGCCATGGGAGCTTCCTA
binding result [1]: no binding

B2: mutant G3RE2 probe (dsDNA)
DNA 1: TAACTACCCCAGAGTTGAAGGAGTGA
DNA 2: TCACTCCTTCAACTCTGGGGTAGTTA
binding result [2]: no binding
